Laboratory results from publication PMC11441081 (2024).

What was measured:
[1] = target: T1, EIV-HA protein (hemagglutinin of equine influenza virus H3N8), wild type (equine influenza virus (H3N8)); assay: SPR
[2] = target: T1, EIV-HA protein (hemagglutinin of equine …); assay: SPR; remark: listed apart in the source
[3] = target: T1, EIV-HA protein (hemagglutinin of equine …); assay: ELISA

B1: H81 recombinant antibody (equine Ig (Fab)2 recombined with homo Ig Fc) (antibody, V domains shown)
VH: QVQLKESGPGLVKPSQTLSLTCTVSGLSLSSDAVGWVRQAPGKGLEWVACIYGDESTYYNPALKSRAGITKDTSKSQVYLTLNSLTGEDTAVYYCAGLVYEYYAGTWTIVFELKYWGQGILVTVSS
VL: QSLTQPASVSGTLGQTVTISCSGSSSNIGHRYSTVGWYQQIPGTAPKTLIYGSDKRASGVPDRFSGSKSGNTATLTISGLQAEDEADYYCGSYYYASSDSSGGAFGGGTHLTIA
[1]
  Kd: 10.1 nM
[2]
  koff: 8.52e-05 s⁻¹
[3]
  EC50: 4.2 ng/mL
